The supplement of paper PMC9732359
± gives the uncertainty stated by the source.

Experiment: protein stability index of a GFP-peptide fusion (yeast GPS) (PSI 1-4); higher = more stable; sorted into four equal gates, so the index is relative within each strain
Method in brief: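 Tiled yeast protein peptides of 17 residues were each joined downstream of GFP, on plasmids that also express Cherry. The pooled library was maintained in yeast, and mid-log cultures in leucine-free medium were sorted into four equal gates on the GFP/Cherry ratio. Plasmids from every gate were amplified by PCR and sequenced on Illumina, with barcodes linking reads to strains. The protein stability index of a peptide is its gate-number-weighted read frequency summed over the gates.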

Sequence | protein stability index (doa10∆) | protein stability index (pdr5∆) | protein stability index (san1∆) | protein stability index (ubr1∆)
MAKRTKKVGITGKYGVR [RPL43A] | 3.36 ± 0.11 | 3.34 ± 0.094 | 3.09 ± 0.1 | 3.55 ± 0.082
QLLMGDIPELSFFHQSN [RPN3] | 2.43 ± 0.067 | 2.2 ± 0.054 | 2.39 ± 0.077 | 2.62 ± 0.039
APSVPEFIYLTKVLQFA [SNF2] | 2.82 ± 0.1 | 2.5 ± 0.087 | 1.78 ± 0.12 | 2.91 ± 0.087
NDNNLKKLESQESLVKL [RPN5] | 3.01 ± 0.071 | 2.96 ± 0.064 | 2.76 ± 0.06 | 2.97 ± 0.071
VLEKKTRQASDLASSKE [RPN5] | 3.38 ± 0.23 | 3.41 ± 0.15 |  | 2.97 ± 0.24
VLRLKPGRKYTTLGKLS [RPL16A] | 2.83 ± 0.047 | 2.94 ± 0.05 | 2.86 ± 0.082 | 3.03 ± 0.051
AHLAEIQLNGGSISEKV [RPL3] |  |  |  | 2.86 ± 0.12
SLDLIKERRSLKPEVRK [RPL24A] |  |  |  | 3.32 ± 0.22
KFKHIDDKYGRKFALEK [SRP72] | 2.59 ± 0.061 | 2.81 ± 0.069 | 3.17 ± 0.054 | 3 ± 0.052
QELELPGEFVTAIAHSI [SNF5] | 2.36 ± 0.049 | 2.37 ± 0.038 | 2.38 ± 0.038 | 2.4 ± 0.043
CTSLMDIIVAIKIFELK [IRR1] | 2.1 ± 0.2 | 1.41 ± 0.16 | 2.13 ± 0.16 | 1.36 ± 0.072
PNFFLTLISENWWHSEF [BRR2] | 2.8 ± 0.22 | 2.27 ± 0.11 | 2.59 ± 0.092 | 2.85 ± 0.25
NGVNVQIDQLNRLLPNL [GRR1] | 2.86 ± 0.044 | 3.07 ± 0.05 | 2.88 ± 0.039 | 2.91 ± 0.04
LQHLRSRCHLVTKDTKK [SRP68] | 2.93 ± 0.11 | 2.88 ± 0.11 | 2.93 ± 0.12 | 3.12 ± 0.056
KLTRELEKKFQDRHVIF [RPS7A] | 3.08 ± 0.14 | 3.5 ± 0.18 | 3.09 ± 0.086 | 3.18 ± 0.1
CLTMFEDRNESVNIAFA [ECM29] | 2.42 ± 0.13 | 2.52 ± 0.094 | 2.81 ± 0.11 | 2.5 ± 0.073
WNSLMYALQSVKLPRAF [RRP43] | 1.31 ± 0.066 | 1.34 ± 0.083 | 1.2 ± 0.12 | 1.29 ± 0.051
SRGLFEKKLMQDNKQLY [YDL116W/NUP84] | 2.75 ± 0.067 | 3.06 ± 0.09 | 3.11 ± 0.078 | 2.93 ± 0.1
SLQNNLQNNINNSNNNN [SNF11] | 3.19 ± 0.078 | 3.27 ± 0.099 | 3.31 ± 0.066 | 3.29 ± 0.062
GHRMKNAQSKLSLTLNT [SNF2] | 1.94 ± 0.056 | 1.73 ± 0.04 | 1.79 ± 0.065 | 2.24 ± 0.041
RAPELLLGARHYTPAVD [SSN3] | 1.67 ± 0.12 | 1.08 ± 0.13 | 1.9 ± 0.3 | 1.56 ± 0.11
GSLACDTADEAKTLIPS [RPB4] | 3.06 ± 0.1 | 3.42 ± 0.086 | 3.33 ± 0.051 | 3.17 ± 0.071
ENKTKKDNDKNLKFLKN [SRB4] | 3.42 ± 0.064 | 3.4 ± 0.079 | 3.28 ± 0.048 | 3.42 ± 0.057
RERIRKGLQIYQSSVQE [PRP8] |  |  | 1.81 ± 0.24 | 
EKRIQYAKDILQKEFLP [RPB2] | 2.06 ± 0.055 | 1.85 ± 0.052 | 2.06 ± 0.091 | 2.08 ± 0.09
NSSRFSDPMLQRTATLC [YCS4] | 2.81 ± 0.12 | 2.98 ± 0.093 | 3.21 ± 0.093 | 3.02 ± 0.078
SHVNKYGLIRGLKFASF [PRP8] | 1.83 ± 0.067 | 1.85 ± 0.065 | 1.91 ± 0.089 | 1.34 ± 0.03
IIGKTTPISPDEEELGQ [RPB2] |  |  | 2.81 ± 0.23 | 2.98 ± 0.29

Sequence | protein stability index (doa10∆) | protein stability index (pdr5∆) | protein stability index (san1∆) | protein stability index (ubr1∆)
NYKGLPKKYKENNTDSA [SMC1] | 3.32 ± 0.07 | 3.31 ± 0.085 | 3.28 ± 0.045 | 3.36 ± 0.061
GGAYTVSTAAAATVRST [RPL43A] | 2.1 ± 0.053 | 2.25 ± 0.049 | 1.95 ± 0.069 | 2.14 ± 0.048
EKTLGKSLSKAISTGAK [RPN7] | 2.98 ± 0.19 | 3.42 ± 0.12 | 3.53 ± 0.12 | 3.57 ± 0.19
TKKKRKPTEVNDSENNS [ITC1] | 3.26 ± 0.063 | 3.21 ± 0.081 | 3.16 ± 0.045 | 3.27 ± 0.054
TEGPSDKKLNLNLPLQF [SNF12] | 3.12 ± 0.1 | 3.31 ± 0.093 | 3.31 ± 0.091 | 2.87 ± 0.11
RSIRGSFTSQGTISIQL [MTR3] | 2.78 ± 0.067 | 2.73 ± 0.057 | 2.77 ± 0.066 | 2.61 ± 0.041
YSEHLKPYDINVVLVTN [DIS3] | 1.77 ± 0.071 | 2.98 ± 0.094 | 2.86 ± 0.066 | 2.47 ± 0.055
GAKYVIRDSGDRIDLRY [RPO21] | 3.23 ± 0.16 | 3.31 ± 0.15 |  | 3.45 ± 0.13
LRNVFLGKCSRITDASL [GRR1] | 2.94 ± 0.066 | 2.81 ± 0.097 | 2.68 ± 0.07 | 2.82 ± 0.05
MAKQLIRLANESSELNK [CSN12] | 3 ± 0.08 | 2.62 ± 0.064 | 2.96 ± 0.079 | 2.63 ± 0.073
FKLDKDTSNWELSDSWR [YGL100W/SEH1] | 3.37 ± 0.068 | 3.45 ± 0.055 | 3.39 ± 0.037 | 3.31 ± 0.042
YQTRARQKARTDAHTPL [RPR2] | 3.29 ± 0.1 | 3.14 ± 0.09 | 3.32 ± 0.058 | 3.27 ± 0.078
YNILGNLGIPKIAYRGV [SSN2] | 2.55 ± 0.12 | 2.48 ± 0.12 | 1.55 ± 0.25 | 1.89 ± 0.1
LKEPVEDIIKRTSPIDN [NUT2] | 2.97 ± 0.083 | 3.09 ± 0.1 | 2.64 ± 0.1 | 3.2 ± 0.061
KKDQSVLKSHSNDFEEG [YMR129W/POM152] | 2.59 ± 0.087 | 2.99 ± 0.12 | 3.07 ± 0.071 | 2.95 ± 0.073
SCIAVMAGLMHFKKPDI [RRP45] | 2.02 ± 0.062 | 1.66 ± 0.053 | 1.77 ± 0.08 | 1.69 ± 0.035
HTATDIYQTLIALNLDT [SNF2] | 2.11 ± 0.032 | 2.36 ± 0.034 | 1.88 ± 0.046 | 1.93 ± 0.024
VTDSSLLKLLTRLVQLR [GRR1] | 2.4 ± 0.054 | 1.7 ± 0.056 | 2.41 ± 0.074 | 1.84 ± 0.045
VERGRVGACTDEEMTIS [RRP43] |  | 3.08 ± 0.23 |  | 3.23 ± 0.2
IEAEEAEEIGVEHLLRD [RPN8] | 3.1 ± 0.19 |  | 3.15 ± 0.13 | 3.23 ± 0.068
WSFEEVEVKDASLVDYV [RPS5] | 1.32 ± 0.089 | 1.14 ± 0.06 | 1.22 ± 0.14 | 1.17 ± 0.056
VPQTEEARAEAINLMGV [RPO31] | 3.15 ± 0.11 | 2.97 ± 0.1 | 3 ± 0.085 | 3.12 ± 0.052
LTSGLLYSYLIKENFFE [YJL039C/NUP192] | 1.9 ± 0.1 | 1.74 ± 0.14 | 1.71 ± 0.12 | 1.2 ± 0.077
EKDAVSVFGFRTQFGGG [RPS24A] | 1.92 ± 0.068 | 2.09 ± 0.094 | 2 ± 0.14 | 1.93 ± 0.064
HALYLAPSGIRMHLAPA [SSN2] | 1.32 ± 0.085 | 2.05 ± 0.085 | 2.09 ± 0.13 | 2.04 ± 0.061
ILSTTLDPTDDEGHVLK [SIN4] | 2.58 ± 0.15 | 2.64 ± 0.11 | 3.01 ± 0.14 | 3 ± 0.12
NMVSLRGRNDTLERVHL [GRR1] | 2.85 ± 0.086 | 3.22 ± 0.14 | 2.39 ± 0.17 | 2.73 ± 0.096
